One series has as its system rat HSCs. As to conditions: blocking integrins in rat HSCs; cited from earlier work. The text has this:
While the mechanisms underlying this anti-apoptotic property of CVI remain to be fully established, our studies point to a potent repression of BAX by soluble CVI. […] This growth factor withdrawal-induced p53 and Bax upregulation can be mitigated by ECM components through integrin-mediated adhesion and spreading as shown for rat HSCs.

A further series concerns CFSC. Kind of series: Fibrosis-associated gene expression, quantitative real-time PCR. The format is cell-based, rat. Particulars: serum-starved CFSC; 30 mg/l CVI plus 133 mg/l monomeric alpha chain; 24 h; n = 4. Here is the method: 30 mg/l CVI, 133 mg/l of the monomeric alpha chains of CVI and/or TGF-β (2 ng/ml) were added after 24 h. […] Reverse transcribed complementary DNA templates were amplified by quantitative real-time polymerase chain reaction (PCR; Roche Diagnostics, Mannheim, Germany) using fluorogenic probes labeled with 6-carboxy-fluorescein and 6-carboxy-tetramethylrhodamin (Sigma- Genosys, Steinheim, Germany) and primer pairs (Invitrogen, Karlsruhe, Germany) specific for fibrosis-associated genes (for sequences see S2 Table). Gene expressions were normalized to glyceraldehyde phosphate dehydrogenase (GAPDH).

In series [1] the test system is CVI-induced proliferation of HSC. Kind of series: Inhibition of CVI-induced proliferation by alpha single chains, [3H]-thymidine incorporation. In kind it is cell-based, rat. As to conditions: 40 mg/l single chain, then 30 mg/l CVI; 24 h; primary rHSCs, n = three; Fig 4A legend: CFSC, n = 4. Here is the method:
(§1) 5x10^3CFSC in 100 μl 10% FBS were seeded into a 96-well flat-bottom tissue culture plate (Nunc, Roskilde, Denmark). After 24 hours, medium was completely removed, and cells were rinsed with 200 μl phosphate-buffered saline and 100 μl standard medium containing only 0.25% FBS were added. Cells were cultured for additional 24 h prior to treatment. Synchronized microcultures in 96-well plates were treated for 2 hours in reduction medium. When appropriate, the reduction medium was supplemented with 40 mg/l of α1(VI), α2(VI) or α3(VI). Then, 30 mg/l CVI or CI as control were added and cells were incubated for 24 h after which [^3H]-thymidine was added for additional 24 h. To assess effects of α3(VI)-derived 30-mer peptides on CVI-induced proliferation of CFSC, the reduction medium was supplemented with a 100-fold molar excess of the respective 30-mer peptides compared to CVI. [^3H]-thymidine incorporation was measured as described before. Cells treated with 150 mmol/l HAc or grown in 10% FBS served as negative and positive controls, respectively. During the last 4 hours of treatment, all cultures received 18.5 kBq [^3H]-thymidine (Amersham, Freiburg, Germany). Cells were fixed with 10% trichloroacetic acid and lysed by 200 mmol/l NaOH. After neutralization with 800 mmol/l HCl, lysates were collected to a glassfibre mat and the de-novo DNA synthesis was assessed by liquid scintillation (LKB Wallac, Bromma, Sweden) and the radioactive decay was counted (for) a minute (cpm).

For series [2], the system named is 10% FBS-induced proliferation of HSC. Kind of series: Inhibition of 10% FBS-induced proliferation by alpha single chains, [3H]-thymidine incorporation. As to conditions: cells grown in 10% FBS, Fig 4A. The format is cell-based, rat. On the procedure:
as §1

Series [3] is described as follows: Live/Dead Viability/Cytotoxicity Kit (Calcein AM staining). The format is cell-based. Particulars: 24 h with individual chains; S4 Fig; three independent experiments. On the procedure: Supplementary file pone.0254557.s004.pdf: S4 Fig Single CVI chains are not toxic To exclude that the effects of the alpha chains on proliferation or gene expression are due to cytotoxic effects, cells were treated 24 h with individual chains and cell viability was determined using the two-colour fluorescence Live/Dead™ Viability/Cytotoxicity Kit (Invitrogen™). Methanol (10% in medium) was used a positive control to induce cell toxicity. Medium was used as a non-toxic negative control. Since acetic acid (HAc) is used as solvent of the chains, cells treated with 0.15 M HAc were included as an additional control group. Shown are Mean ± SD of three independent experiments. Statistics were calculated by one-way ANOVA analysis and Tukey’s multiple comparisons test. Differences p<0.05 were considered significant. (PDF) Click here for additional data file.

As to Gly-Arg-Gly-Asp-Ser [GRGDS], the “increase in the Bax/Bcl-2 ratio” value in the series with rat HSCs is listed as 3 fold.
“α3(VI): monomeric alpha 3 single chain of collagen VI isolated from human placentas”: the “effect on CVI-induced expression of αSMA, CI and TGF-β” value with CFSC is “largely blocked”. In addition, in series [1], the “inhibition of DNA synthesis in the presence of CVI” value amounted to 70%. Also, the “effect on 10% FBS-induced proliferation” value in series [2] is recorded as “did not block any FBS-induced proliferation”. For the same molecule, the “cytotoxic effects (Calcein AM staining, cell viability)” value in series [3] was “not secondary to cytotoxic effects”.

B1: α2(VI): monomeric alpha 2 single chain of collagen VI isolated from human placentas (protein, UniProt P12110 21-1019, looked up)
Collagen alpha-2(VI) chain: QQQEVISPDTTERNNNCPEKTDCPIHVYFVLDTSESVTMQSPTDILLFHMKQFVPQFISQLQNEFYLDQVALSWRYGGLHFSDQVEVFSPPGSDRASFIKNLQGISSFRRGTFTDCALANMTEQIRQDRSKGTVHFAVVITDGHVTGSPCGGIKLQAERAREEGIRLFAVAPNQNLKEQGLRDIASTPHELYRNDYATMLPDSTEIDQDTINRIIKVMKHEAYGECYKVSCLEIPGPSGPKGYRGQKGAKGNMGEPGEPGQKGRQGDPGIEGPIGFPGPKGVPGFKGEKGEFGADGRKGAPGLAGKNGTDGQKGKLGRIGPPGCKGDPGNRGPDGYPGEAGSPGERGDQGGKGDPGRPGRRGPPGEIGAKGSKGYQGNSGAPGSPGVKGAKGGPGPRGPKGEPGRRGDPGTKGSPGSDGPKGEKGDPGPEGPRGLAGEVGNKGAKGDRGLPGPRGPQGALGEPGKQGSRGDPGDAGPRGDSGQPGPKGDPGRPGFSYPGPRGAPGEKGEPGPRGPEGGRGDFGLKGEPGRKGEKGEPADPGPPGEPGPRGPRGVPGPEGEPGPPGDPGLTECDVMTYVRETCGCCDCEKRCGALDVVFVIDSSESIGYTNFTLEKNFVINVVNRLGAIAKDPKSETGTRVGVVQYSHEGTFEAIQLDDERIDSLSSFKEAVKNLEWIAGGTWTPSALKFAYDRLIKESRRQKTRVFAVVITDGRHDPRDDDLNLRALCDRDVTVTAIGIGDMFHEKHESENLYSIACDKPQQVRNMTLFSDLVAEKFIDDMEDVLCPDPQIVCPDLPCQTELSVAQCTQRPVDIVFLLDGSERLGEQNFHKARRFVEQVARRLTLARRDDDPLNARVALLQFGGPGEQQVAFPLSHNLTAIHEALETTQYLNSFSHVGAGVVHAINAIVRSPRGGARRHAELSFVFLTDGVTGNDSLHESAHSMRKQNVVPTVLALGSDVDMDVLTTLSLGDRAAVFHEKDYDSLAQPGFFDRFIRWIC
As to B1, in the series on CFSC, the “effect on CVI-induced expression of αSMA, CI and TGF-β” value was “largely blocked”. Moreover, the “inhibition of DNA synthesis in the presence of CVI” value in series [1] was found to be 60%. In addition, the “effect on 10% FBS-induced proliferation” value in series [2] is recorded as “also inhibited 10% FBS-induced proliferation”. The “cytotoxic effects (Calcein AM staining, cell viability)” value in series [3] is given as “not secondary to cytotoxic effects”.

These data come from publication PMC8412337, “Alpha-single chains of collagen type VI inhibit the fibrogenic effects of triple helical collagen VI in hepatic stellate cells” (PLoS ONE, 2021).
